Reference: patent US20230220071A1 (Hoffmann-La Roche, published 2023)
Numbering of substitutions follows the chain as printed. Blank lines part the entries; values can stand above or below the binder they belong to.

Columns and labels:
[1] = target: T1, biotinylated human transferrin receptor (human, UniProt P02786 89-760, limits assumed, biotinylated (mono-biotinylated in Example 13)); assay: SPR BIAcore B4000, biotinylated TfR captured, 25 C
T1 construct: also called human transferrin receptor-biotinylated; mono-biotinylated human transferrin receptor
T1 sequence (P02786 89-760 limits assumed): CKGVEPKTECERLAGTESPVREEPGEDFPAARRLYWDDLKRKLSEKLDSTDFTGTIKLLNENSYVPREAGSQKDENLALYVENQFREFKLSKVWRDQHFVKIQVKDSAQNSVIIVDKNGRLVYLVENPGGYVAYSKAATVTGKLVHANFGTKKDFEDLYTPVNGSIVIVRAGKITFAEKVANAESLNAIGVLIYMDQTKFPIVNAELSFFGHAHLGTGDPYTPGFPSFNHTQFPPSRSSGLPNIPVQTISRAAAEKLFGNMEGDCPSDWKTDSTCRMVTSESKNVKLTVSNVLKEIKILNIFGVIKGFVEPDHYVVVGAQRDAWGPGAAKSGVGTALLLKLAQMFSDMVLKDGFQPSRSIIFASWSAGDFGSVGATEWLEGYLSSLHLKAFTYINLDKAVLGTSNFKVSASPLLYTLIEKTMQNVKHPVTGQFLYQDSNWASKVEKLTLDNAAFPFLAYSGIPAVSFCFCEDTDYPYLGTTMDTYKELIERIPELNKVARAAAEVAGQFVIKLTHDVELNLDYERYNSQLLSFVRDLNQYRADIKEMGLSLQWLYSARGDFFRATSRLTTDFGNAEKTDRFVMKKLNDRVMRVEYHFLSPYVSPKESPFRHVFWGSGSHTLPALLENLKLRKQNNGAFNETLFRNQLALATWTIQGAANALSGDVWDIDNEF
Experimental: A CAP sensor chip (provided in the Biotin CAPture Kit, series S #28-9202-34 GE) was mounted into a BIAcore B4000 system, normalized and addressed in a hydrodynamic manner, according to the manufacturer's instructions. In the first cycle the CAP reagent (as provided in the Kit) was addressed to spot 1, 2, 4 and 5 with a flow rate of 10 μL/min for 300 sec. The human transferrin receptor capture took place in spot 1 (human transferrin receptor-biotinylated) and spot 5 (cynomolgus transferrin receptor-biotinylated) with a flow rate of 10 μL/min and a contact time of 30 sec. The receptors were diluted to a concentration of 50 nM with running buffer (1×PBS #28995084, GE Healthcare, supplemented with 0.25 M NaCl). The antibodies were injected into all flow cells in a concentration series of 100 nM, 50 nM, 25 nM and 0 nM for 180 sec at a flow speed of 30 μL/min. Dissociation time was set to 300 sec. Regeneration of the whole complex from the CAP chip has been performed utilizing the regeneration solution provided in the Biotin CAPture Kit (120 sec with a flow rate of 10 μL/min). To control the active protein concentration a second cycle was performed in spot 5 utilizing biotinylated protein A (#P2165-2MG, Sigma) with a flow rate of 10 μL/min and a contact time of 30 sec. Spot 1 was kept empty in this control cycle. The antibodies and the regeneration were handled like in cycle 1. Relevant kinetic data was calculated using the BIAcore B4000 evaluation software. The dissociation from the human transferrin receptor has been determined applying the 1:1 dissociation fit.

[2] = target: T2, human transferrin receptor (BIAcore, construct not stated) (human, UniProt P02786 89-760); assay: SPR, 25 C
T2 construct: also called huTfR
T2 sequence (P02786 89-760): as the sequence (P02786 89-760 limits assumed) above

B1: VH23-DANG / VK2-SYS (antibody, V domains shown)
VH: QSMQESGPGLVKPSQTLSLTCTVSGFSLSSYAMSWIRQHPGKGLEWIGYIWSGGSTDYASWAKSRVTISKTSTTVSLKLSSVTAADTAVYYCARRYGTSYPDYGDANGFDPWGQGTLVTVSS
VL: DIQMTQSPSSLSASVGDRVTITCRASQSISSYLNWYQQKPGKAPKLLIYRASTLASGVPSRFSGSGSGTDFTLTISSLQPEDFATYYCQQSYSSSNVDNTFGGGTKVEIK
koff [1]: 0.00522 s⁻¹

B2: VH23-DANG / VK15-AYS (antibody, V domains shown)
VH: B1 VH
VL: DIVMTQSPDSLAVSLGERATINCKSSQSISSYLIWYQQKPGQPPKLLIYRASTLASGVPDRFSGSGSGTDFTLTISSLQAEDVAVYYCQQAYSSSNVDNTFGGGTKVEIK
koff [1]: 0.00697 s⁻¹

B3: VH7-DANG / VK6-SYS (antibody, V domains shown)
VH: QQLVETGGGLIQPGGSLRLSCAASGFSLSSYAMSWVRQAPGKGLEWIGYIWSGGSTDYASWAKGRFTISRDNSKNTLYLQMNSLRAEDTAVYYCARRYGTSYPDYGDANGFDPWGQGTLVTVSS
VL: B1 VL with D1A, M4L, N34S
koff [1]: 0.0308 s⁻¹

B4: VH9-DANG / VK9-NYA (antibody, V domains shown)
VH: B3 VH with V4L, T6S, I11V, S27T, L28F, I47V, S60D, W61S, A62V, R96K
VL: B1 VL with D1A, M4L, N34A, S91N, S93A
koff [1]: 0.00182 s⁻¹

B5: VH23-DANG / VK17-TYS (antibody, V domains shown)
VH: B1 VH
VL: B1 VL with D1A, M4L, N34A, S91T
koff [1]: 0.00229 s⁻¹

B6: VH23-DANG / VK12-HYS (antibody, V domains shown)
VH: B1 VH
VL: B1 VL with N34A, G66R, S91H
koff [1]: 0.0153 s⁻¹

B7: VH9-DANG / VK2-SYS (antibody, V domains shown)
VH: B3 VH with V4L, T6S, I11V, S27T, L28F, I47V, S60D, W61S, A62V, R96K
VL: B1 VL
koff [1]: 0.0402 s⁻¹

B8: VH23-DANG / VK6-SYS (antibody, V domains shown)
VH: B1 VH
VL: B1 VL with D1A, M4L, N34S
koff [1]: 0.0132 s⁻¹

B9: clone 299 VH 16 / VL 0 (rb) (antibody, V domains shown)
VH: QQLQESGPGLVKPSETLSLTCTVSGFSLSSYAMSWVRQPPGKGLEWIGYIWSGGSTDYNPSLKSRVTISVDTSKNQVSLKLSSVTAADTAVYYCARRYGTSYPDYGDANGFDPWGPGTLVTVSS
VL: AYDMTQTPASVEVAVGGTVTIKCQASQSISSYLSWYQQKPGQRPKLLIYRASTLASGVSSRFKGSGSGTQFTLTISGVECADAATYYCQQCYSSSNVDNTFGGGTEVVVK
koff [2]: 0.000653 s⁻¹

B10: clone 299 VH 11 / VL 0 (rb) (antibody, V domains shown)
VH: B3 VH with V4L, T6S, I11V, I47V, S60D, W61S, A62V
VL: B9 VL
koff [2]: 0.000905 s⁻¹

B12: clone 299 VH 12 / VL 0 (rb) (antibody, V domains shown)
VH: QVQLQESGPGLVKPSETLSLTCTVSGFSLSSYAMSWIRQPPGKGLEWIGYIWSGGSTDYNPSLKSRVTISVDTSKNQFSLKLSSVTAADTAVYYCARRYGTSYPDYGDANGFDPWGQGTLVTVSS
VL: B9 VL
koff [2]: 0.000921 s⁻¹

B14: clone 299 VH 9 / VL 0 (rb) (antibody, V domains shown)
VH: B3 VH with V4L, T6S, I11V, S27T, L28F, I47V, S60D, W61S, A62V, R96K
VL: B9 VL
koff [2]: 0.000901 s⁻¹

B16: clone 299 VH 1 / VL 0 (rb) (antibody, V domains shown)
VH: B3 VH with Q1V, I47V, S60D, W61S, A62V
VL: B9 VL
koff [2]: 0.000908 s⁻¹

B17: clone 299 VH 15 / VL 9-NYA (antibody, V domains shown)
VH: B9 VH with P116Q
VL: B1 VL with D1A, M4L, N34A, S91N, S93A
koff [2]: 0.00142 s⁻¹

B20: clone 299 VH 5 / VL 0 (rb) (antibody, V domains shown)
VH: B3 VH with Q2S, L3M, V4E, I47V, S60D, W61S, A62V, Q116P
VL: B9 VL
koff [2]: 0.000772 s⁻¹

B21: clone 299 VH 7 / VL 0 (rb) (antibody, V domains shown)
VH: B3 VH
VL: B9 VL
koff [2]: 0.000515 s⁻¹

B25: clone 299 VH 16 / VL 9-NYA (antibody, V domains shown)
VH: B9 VH
VL: B1 VL with D1A, M4L, N34A, S91N, S93A
koff [2]: 0.00136 s⁻¹

The next lines start with the values.

koff [2]: 0.000338 s⁻¹
B11: clone 299 VH 23-DANG / VL 0 (rb) (antibody, V domains shown)
VH: B1 VH
VL: B9 VL

koff [2]: 0.000565 s⁻¹
B13: clone 299 VH 21 / VL 0 (rb) (antibody, V domains shown)
VH: B9 VH with Q2S, L3M, E15Q, V36I, P39H, N59A, P60S, S61W, L62A, P116Q
VL: B9 VL

koff [2]: 0.000413 s⁻¹
B15: clone 299 VH 17 / VL 0 (rb) (antibody, V domains shown)
VH: B9 VH with V70K
VL: B9 VL

koff [2]: 0.00113 s⁻¹
B18: clone 299 VH 21 / VL 9-NYA (antibody, V domains shown)
VH: B9 VH with Q2S, L3M, E15Q, V36I, P39H, N59A, P60S, S61W, L62A, P116Q
VL: B1 VL with D1A, M4L, N34A, S91N, S93A

koff [2]: 0.00617 s⁻¹
B19: clone 299 VH 19 / VL 9-NYA (antibody, V domains shown)
VH: B9 VH with Q2S, L3M, E15Q, V36I, P39H, N59A, V77F, P116Q
VL: B1 VL with D1A, M4L, N34A, S91N, S93A

koff [2]: 0.001 s⁻¹
B22: clone 299 VH 19 / VL 0 (rb) (antibody, V domains shown)
VH: B9 VH with Q2S, L3M, E15Q, V36I, P39H, N59A, V77F, P116Q
VL: B9 VL

koff [2]: 0.00126 s⁻¹
B23: clone 299 VH 22 / VL 9-NYA (antibody, V domains shown)
VH: B9 VH with Q2S, L3M, E15Q, P39H, N59A, P60S, S61W, L62A, P116Q
VL: B1 VL with D1A, M4L, N34A, S91N, S93A

koff [2]: 0.000506 s⁻¹
B24: clone 299 VH 22 / VL 0 (rb) (antibody, V domains shown)
VH: B9 VH with Q2S, L3M, E15Q, P39H, N59A, P60S, S61W, L62A, P116Q
VL: B9 VL

koff [2]: 0.00109 s⁻¹
B26: clone 299 VH 18 / VL 0 (rb) (antibody, V domains shown)
VH: B12 VH with E16Q, P40H, N60A
VL: B9 VL

koff [2]: 0.00189 s⁻¹
B27: clone 299 VH 20 / VL 9-NYA (antibody, V domains shown)
VH: B9 VH with Q2S, L3M, E15Q, V36I, P39H, N59A, P116Q
VL: B1 VL with D1A, M4L, N34A, S91N, S93A

koff [2]: 0.000934 s⁻¹
B28: clone 299 VH 17 / VL 9-NYA (antibody, V domains shown)
VH: B9 VH with V70K
VL: B1 VL with D1A, M4L, N34A, S91N, S93A
